The values below are quoted from earlier work in article PMC4026351.

Series [1] concerns the target BtuB (Escherichia coli) (UniProt P06129).
For series [2] the target is unchanged. This is another data set of the same source.

Like-named read-outs stand apart in the source and are kept apart here.

UniProt P06129, sequence (P06129 21-614): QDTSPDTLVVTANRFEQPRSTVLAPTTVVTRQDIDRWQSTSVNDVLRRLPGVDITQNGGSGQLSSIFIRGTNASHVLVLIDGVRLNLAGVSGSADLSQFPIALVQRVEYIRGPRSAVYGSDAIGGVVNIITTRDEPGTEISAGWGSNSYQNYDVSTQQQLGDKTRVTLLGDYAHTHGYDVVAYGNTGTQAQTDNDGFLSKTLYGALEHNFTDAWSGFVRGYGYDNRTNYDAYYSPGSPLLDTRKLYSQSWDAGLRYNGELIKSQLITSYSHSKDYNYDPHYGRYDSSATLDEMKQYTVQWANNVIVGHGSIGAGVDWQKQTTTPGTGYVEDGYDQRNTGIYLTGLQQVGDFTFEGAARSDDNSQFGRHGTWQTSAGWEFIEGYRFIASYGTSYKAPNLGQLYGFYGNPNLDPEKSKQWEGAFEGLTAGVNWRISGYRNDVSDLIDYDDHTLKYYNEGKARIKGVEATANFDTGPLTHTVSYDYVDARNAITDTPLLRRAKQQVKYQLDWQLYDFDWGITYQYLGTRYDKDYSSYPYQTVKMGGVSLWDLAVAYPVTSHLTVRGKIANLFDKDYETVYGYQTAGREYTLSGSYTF

For the substance “colicin E2 R-domain (from UniProt P04419)”, in series [1], the dissociation constant (Kd) is 1.5 nM.
With “colicin E3 R-domain (from UniProt P00646)”, in series [2], the Kd was 1.5 nM.

The term Kd denotes the constant that tells how readily two partners part at equilibrium.
